Assay results published in article PMC5176175, “Bg10: A Novel Metagenomics Alcohol-Tolerant and Glucose-Stimulated GH1 ß-Glucosidase Suitable for Lactose-Free Milk Preparation” (PLoS ONE, 2016).

Substrate: O=[N+]([O-])c1ccc(O[C@@H]2O[C@H](CO)[C@@H](O)[C@H](O)[C@H]2O)cc1
Test: purified protein
Type: biochemical, uncultured bacterium
Settings: pH 7.0, 37 °C, sodium phosphate buffer, 0.1-10 mM substrate

B1: Bg10 (uncultured bacterium) (protein)
chain: MTAVRSESAELSQSPASYRFPPGFVWGAATAAYQIEGAAAEDGRTPSIWDTFSHTPGRVLNGDTGDIAADHYHRFRDDVALMSDLNLGAYRFSVSWSRVQPTGRGPAVQRGLDFYRQLVDELLEKGITPVATLYHWDLPQDLEDVGGWTVRDTPERFAEYTEIVAAALGDRVPYWTTLNEPWCSAYLGYGSGVHAPGRTDPEAALKAVHHLNLAHGRGIGVLRSLLPSTARTSITLNLHQIRPLSTSPADLDAARRIDAVGNRVWLGPILDGAYPQDVLADTGHLVDWDRLVRDGDLEEISRPIDLLGINYYTPTLVSDGRAHADGPAMPRNDGHGASAHSPWPGSEHVAFHLAPGETTAMRWAVDASGLYDLLMRIHREHPGLPMMVTENGAAYDDYISPEGAINDPDRIAYLRGHLSAVHRALADGADVRGYFLWSLLDNFEWAYGYSKRFGAVYVDFGTQRRIPKQSAHWYAAVARDNVLPDGPEEDGTS
notes: ORF10 in pET28a (EcoRI/HindIII), E. coli BL21(DE3), Ni-NTA and size exclusion
Km: 490 ± 120 µM
kcat: 2.918 ± 0.115 s⁻¹
